The source of these data is patent US20070100561.

Data set [1] deals with enzymatically deglycosylated soluble extracellular domain of human dipeptidyl peptidase IV (sDPP-IVdeglycos; residues 31-766).
The target in data set [2] is enzymatically deglycosylated soluble extracellular domain of human DPP-IV (sDPP-IVdeglycos).
enzymatically deglycosylated soluble extracellular domain of human DPP-IV (sDPP-IVdeglycos), sequence (chain, as listed by the source): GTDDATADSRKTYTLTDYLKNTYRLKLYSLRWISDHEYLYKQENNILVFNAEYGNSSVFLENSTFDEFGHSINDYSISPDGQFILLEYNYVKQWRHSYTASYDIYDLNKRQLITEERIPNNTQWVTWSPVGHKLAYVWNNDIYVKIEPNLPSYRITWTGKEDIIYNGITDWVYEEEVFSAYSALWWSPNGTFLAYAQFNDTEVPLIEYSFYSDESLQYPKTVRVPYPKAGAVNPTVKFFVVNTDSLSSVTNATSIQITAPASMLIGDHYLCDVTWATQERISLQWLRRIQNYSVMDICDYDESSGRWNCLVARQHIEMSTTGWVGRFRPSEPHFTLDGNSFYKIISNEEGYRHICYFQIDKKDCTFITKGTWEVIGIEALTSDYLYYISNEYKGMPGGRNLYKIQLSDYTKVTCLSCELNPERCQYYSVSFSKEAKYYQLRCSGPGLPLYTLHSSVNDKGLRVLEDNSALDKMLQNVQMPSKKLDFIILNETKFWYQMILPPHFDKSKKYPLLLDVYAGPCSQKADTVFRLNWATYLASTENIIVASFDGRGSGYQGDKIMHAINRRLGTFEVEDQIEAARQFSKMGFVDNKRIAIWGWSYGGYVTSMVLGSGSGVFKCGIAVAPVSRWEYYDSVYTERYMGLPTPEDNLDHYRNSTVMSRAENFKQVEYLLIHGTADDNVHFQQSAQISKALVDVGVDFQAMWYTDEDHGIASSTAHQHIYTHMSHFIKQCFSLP

enzymatically deglycosylated soluble extracellular domain of human dipeptidyl peptidase IV (sDPP-IVdeglycos; residues 31-766), sequence (chain, as listed by the source): as above

B1: adenosine deaminase (ADA; Sigma Type IV, from calf intestinal mucosa) (protein)
chain: AQTPAFNKPKVELHVHLDGAIKPETILYYGRKRGIALPADTPEELQNIIGMDKPLSLPEFLAKFDYYMPAIAGCREAVKRIAYEFVEMKAKDGVVYVEVRYSPHLLANSKVEPIPWNQAEGDLTPDEVVSLVNQGLQEGERDFGVKVRSILCCMRHQPSWSSEVVELCKKYREQTVVAIDLAGDETIEGSSLFPGHVKAYAEAVKSGVHRTVHAGEVGSANVVKEAVDTLKTERLGHGYHTLEDATLYNRLRQENMHFEVCPWSSYLTGAWKPDTEHPVVRFKNDQVNYSLNTDDPLIFKSTLDTDYQMTKNEMGFTEEEFKRLNINAAKSSFLPEDEKKELLDLLYKAYGMPSPA
For B1, the DPP-IV activity result in data set [1] is given as “confirming the independence of DPP-IV activity on ADA binding”. In data set [2], the KM (enzyme activity of DPP-IV in the complex with ADA) was 14.8 µM, the kcat (enzyme activity of DPP-IV in the complex with ADA) was 39.6 s⁻¹ and the kcat/KM (enzyme activity of DPP-IV in the complex with ADA) stood at 2.68e+06 M⁻¹ s⁻¹.
